Target: T1, DIP1-c (Disconnected Interacting Protein 1, longest isoform) (Drosophila melanogaster, UniProt C6TP62 1-410)
T1 sequence: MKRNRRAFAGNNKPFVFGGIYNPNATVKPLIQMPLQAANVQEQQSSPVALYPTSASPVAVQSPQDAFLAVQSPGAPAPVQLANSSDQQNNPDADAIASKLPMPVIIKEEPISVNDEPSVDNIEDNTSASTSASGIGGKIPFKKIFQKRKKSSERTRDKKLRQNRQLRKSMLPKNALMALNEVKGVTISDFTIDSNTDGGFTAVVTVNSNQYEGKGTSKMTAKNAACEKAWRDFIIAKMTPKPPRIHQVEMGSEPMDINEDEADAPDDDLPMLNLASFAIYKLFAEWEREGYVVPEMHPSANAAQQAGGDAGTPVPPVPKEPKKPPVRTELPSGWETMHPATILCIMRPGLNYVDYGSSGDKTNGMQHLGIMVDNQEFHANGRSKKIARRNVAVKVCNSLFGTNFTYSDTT
Assay: EMSA

B1: dsDNA40 (dsDNA)
DNA 1: CCGGGCTGCACATGGTTAATGGCCAGTCCACGCGTAGATC
DNA 2: GATCTACGCGTGGACTGGCCATTAACCATGTGCAGCCCGG
**Q.** How did the Kd turn out when B1 was run?
**A.** Its Kd is 26 ± 8 nM.

Source: publication PMC2931317
